This note sets out measurements from publication PMC11139864.

For assay [1], the target named is Thogoto virus (THOV) polymerase, full-length heterotrimer of PB2, PB1 and PA (Thogoto virus (isolate SiAr 126)) (UniProt Q9YNA4). The assay can be described thus: cryo-EM structure; transcriptional elongation sample: 3.2 uM THOVPol, 30 °C for 6 h with 2.5 uM 3' vRNA, 2.5 uM 5' vRNA, 160 uM capped primer m7GpppAmG, 1.6 mM each ATP and CTP; 25 mM Tris-HCl pH 7.5, 300 mM NaCl, 2 mM MnCl2, 8 mM TCEP, 1% glycerol; asymmetric dimer of two heterotrimers (THOVPol-EL with THOVPol-RE) beside monomeric forms.

The target is the same in assay [2]. The assay can be described thus: cryo-EM structure; replicative elongation sample: 3.2 uM THOVPol, 30 °C for 6 h with 1.6 uM 3' vRNA, 1.6 uM 5' vRNA, 160 uM primer pppApG, 1.6 mM each ATP and CTP; 25 mM Tris-HCl pH 7.5, 300 mM NaCl, 2 mM MnCl2, 8 mM TCEP, 1% glycerol; asymmetric dimer of two heterotrimers (THOVPol-ELR with THOVPol-RER) beside a monomeric form.
The target is the same in assay [3].

For orientation: stoichiometry N means a count of units in the complex or per binding partner.

“Thogoto virus (THOV) polymerase, full-length heterotrimer of PB2, PB1 and PA (from UniProt Q9YNA4 1-769; Q9YNA4 1-769; Q9YNA4 1-769) (complex)” gave a stoichiometry N in assay [1] of 2. The substance also gave a stoichiometry N in assay [2] of 2. In assay [3], this substance showed a reduction of mRNA and cRNA levels in the mini-replicon assay (RT-qPCR) with PB2-HA D547A/F549A (dimer interface 1) of more than 100 fold; a reduction of mRNA and cRNA levels in the mini-replicon assay (RT-qPCR) with PB2-HA F134A/W138A (dimer interface 2) of more than 100 fold; a reduction of mRNA and cRNA levels in the mini-replicon assay (RT-qPCR) with PB2-HA Q295A/D547A/I653A (dimer interfaces 1 and 3) of more than 100 fold.
